“Also recorded” adds a separate entry of the source.
Key:
β2AR [1] = target: T1, β2AR (Homo sapiens, UniProt P07550); conditions: agonist competition binding, Sf9 membranes
Source text: The IC50 values used for calculations of Ki values were obtained from means of pIC50 values determined by nonlinear regression analysis using Prism (GraphPad Software, San Diego, Calif.) and the s.e. interval from pIC50±s.e.

β2AR [2] = target: T1, β2AR; experiment: Monobromobimane fluorescence of purified mBBr-labeled β2AR; format: biochemical; parameters: made in house; conditions: 1 μM nanobody, β2AR bound to full agonist isoproterenol
Source text: To investigate the effect of nanobodies on movement of the cytoplasmic domain of TM6 we labeled purified β2AR at C265 with monobromobimane (mBB-β2AR). […] In mBB-β2AR, the addition of agonist together with G protein results in larger fluorescent changes than either agonist or G protein alone. This is compatible with the cooperative interactions observed in agonist competition binding assays (Yao et al. 2009).
Purified β2AR was reacted with 1:1 equivalent of monobromobimane (mBBr, Invitrogen) in 100 mM NaCl, 20 mM HEPES, pH 7.5, 0.1% dodecyl maltoside and incubated overnight on ice in the dark. The fluorophore-labeled receptor was purified right before use by gel filtration on a desalting column equilibrated with the same buffer. […] All experiments were performed at 25° C. […] To determine the effect of nanobodies and ligands, three individual labeled protein samples were incubated with 1 μM nanobody or 10 μM Isoproterenol or both. Emission spectra of the samples were taken after 1 hour incubation.

β2AR [3] = experiment: Size exclusion chromatography of nanobody with purified agonist- or inverse agonist-bound β2AR; format: binding, human; conditions: 20 μM β2AR bound to agonist or inverse agonist, 40 μM nanobody
Experimental: The mixture was then analyzed by Size Exclusion Chromatography (SEC), which separates protein on the basis of size. Seven of the nanobodies bound to purified β2AR and migrated as a complex on SEC only in the presence of agonist and not an inverse agonist (an example is shown in FIG. 1, Panel a, FIGS. 3A, 3B, and FIG. 4).
Agonist selective nanobodies were identified by size exclusion chromatography following incubation of 20 μM agonist or inverse agonist-(carazolol-) bound β2AR-365N for one hour at RT in the absence or presence of 40 μM nanobody.

human β1AR = human β1AR (Homo sapiens, UniProt P08588); experiment: [3H]-DHA competition binding on β1AR with or without Nb80
Source text: Active state stabilizing Nanobodies that are cross-reactive to related receptors can be used as a tool to stabilize a conformational state of those related receptors. […] Using the PISA server (Krissinel & Henrick, 2007) and based on the crystal structure of the Nb80-β2AR complex, 30 β2AR AA residues were identified to interact with Nb80 in the β2AR-Nb80 interface. […] The remaining interface residues are lysines in β2AR and have been substituted by arginines in β1AR corresponding to conserved substitutions (shown in grey boxes in FIG. 17). It thus appears that both receptors share a very similar binding site for Nb80. Based on this analysis, we also measured the effect of Nb80 on the affinity of β1AR for the agonist isoproterenol and the inverse agonist […] (FIG. 18).

β2AR [4] = target: T1, β2AR; experiment: Fluorescent (CPM) thermal stability assay of detergent-solubilized agonist-bound β2AR; parameters: made in house
Experimental: (§1) The effect of conformational selective nanobodies on the thermostability and the subsequent aggregation of the β2AR receptor was analyzed using a fluorescent thermal stability assay (FIG. 13) and size exclusion chromatography (FIGS. 14A and 14B).
The fluorescent thermal stability assay makes use of the thiol-specific fluorochrome N-[4-(7-diethylamino-4-methyl-3-coumarinyl)phenyl]maleimide (CPM) to measure the chemical reactivity of the native cysteines embedded in the protein interior as a sensor for the overall integrity of the folder state of membrane proteins (Alexandrov et al. 2008). For the fluorescent thermal stability assay, detergent-solubilized receptor (in 0.1% dodecylmaltoside, 100 mM NaCl and 20 mM Hepes pH 7.5) was pre-incubated with isoproterenol (10 μM) in the presence or absence of a 2:1 molar excess of Nb80 for one hour at RT. Samples were then mixed with CPM fluorophore and incubated for two minutes at temperatures ranging from 10° C. to 94° C. and fluorescence emission was collected. […] Unfolding transitions could be described by a simple two-state model, including the native (folded) and the denaturated state, representing the lower and upper plateaus of the melting curves.

β2AR [5] = target: T1, β2AR; experiment: [3H]-DHA competition binding on β2AR reconstituted in HDL particles, with or without Gs or Nb80; parameters: recombinant β2AR truncated at Gly365 (β2AR-365); made in house; host or cells: Sf9 insect cells; conditions: β2AR/HDL
β2AR [6] = target: T1, β2AR; experiment: Temperature-induced aggregation of agonist-bound β2AR analyzed by SEC; parameters: made in house; conditions: isoproterenol 10 μM, 2:1 molar excess of Nb80, 10 minutes at increasing temperatures
Experimental: as §1
We also analyzed the effect of Nb80 on the thermal unfolding and aggregation of the agonist-bound receptor by size exclusion chromatography (SEC). For this experiment, dodecylmaltoside-solubilized receptor was pre-incubated with isoproterenol (10 μM) in the presence or absence of a 2:1 molar excess of Nb80 for 45 minutes at RT. Samples were next incubated for 10 minutes at increasing temperatures and subsequently analyzed by SEC (FIGS. 14A and 14B).

β2AR [7] = experiment: [3H]-DHA competition binding on β2AR reconstituted in HDL particles, with or without Gs or Nb80; parameters: species or system human; conditions: β2AR/HDL + Nb80 versus alone
β2AR-T4L [8] = experiment: [3H]-DHA competition binding on β2AR-T4L reconstituted in HDL particles, with or without Nb80; parameters: species or system human; conditions: β2AR-T4L/HDL + Nb80 versus alone
β2AR-T4L [9] = target: T2, β2AR-T4L (Homo sapiens, UniProt P07550, DEL231-262, form not given); experiment: as above; conditions: β2AR-T4L/HDL
T2 construct: The β2AR and β2AR-T4L (both truncated at position 365) purified as previously described (Rosenbaum et al. 2007); fused on or other part: T4 lysozyme inserted in place of the third intracellular loop between TM5 and TM6 as a crystallisation handle (published construct: residues 2-161, C54T/C97A); Reconstituted in HDL particles

dopamine D1 receptor = dopamine D1 receptor (Homo sapiens, UniProt P21728); experiment: Effect of Nb80 on unrelated receptor; format: binding; conditions: data not shown
β2AR [10] = target: T1, β2AR; format: binding; conditions: full-length β2AR membranes, Nb80 versus irrelevant nanobody

Sequence of human β1AR (P08588 whole entry): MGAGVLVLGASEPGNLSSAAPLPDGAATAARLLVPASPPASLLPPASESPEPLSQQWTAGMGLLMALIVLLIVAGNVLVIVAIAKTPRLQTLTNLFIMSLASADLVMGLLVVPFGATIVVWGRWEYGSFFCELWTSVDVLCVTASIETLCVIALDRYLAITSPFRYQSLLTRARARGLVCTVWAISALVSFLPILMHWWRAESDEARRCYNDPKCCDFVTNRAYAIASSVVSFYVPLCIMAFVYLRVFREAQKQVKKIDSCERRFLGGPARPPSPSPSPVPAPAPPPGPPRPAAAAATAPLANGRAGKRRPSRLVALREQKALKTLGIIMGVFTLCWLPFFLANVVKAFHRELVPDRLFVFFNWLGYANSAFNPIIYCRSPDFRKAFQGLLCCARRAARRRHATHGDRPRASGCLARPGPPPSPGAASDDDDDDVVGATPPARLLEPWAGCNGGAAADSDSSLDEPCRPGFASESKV
Sequence of dopamine D1 receptor (P21728 whole entry, species assumed): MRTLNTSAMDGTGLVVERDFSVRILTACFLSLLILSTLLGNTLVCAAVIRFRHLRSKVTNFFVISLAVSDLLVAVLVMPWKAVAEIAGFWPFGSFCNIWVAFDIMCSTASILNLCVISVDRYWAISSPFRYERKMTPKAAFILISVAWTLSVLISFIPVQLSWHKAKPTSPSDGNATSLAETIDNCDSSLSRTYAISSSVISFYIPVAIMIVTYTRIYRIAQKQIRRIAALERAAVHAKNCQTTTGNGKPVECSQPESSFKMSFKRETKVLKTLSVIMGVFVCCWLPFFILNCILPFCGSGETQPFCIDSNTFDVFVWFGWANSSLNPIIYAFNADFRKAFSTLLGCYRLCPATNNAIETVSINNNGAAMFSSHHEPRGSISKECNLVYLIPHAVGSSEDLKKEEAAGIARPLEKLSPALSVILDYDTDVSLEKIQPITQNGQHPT

B1: NB80: β2AR-specific nanobody, SEQ ID NO:4; lead nanobody stabilizing the active state (protein, listed as Lama glama)
VHH: QVQLQESGGGLVQAGGSLRLSCAASGSIFSINTMGWYRQAPGKQRELVAAIHSGGSTNYANSVKGRFTISRDNAANTVYLQMNSLKPEDTAVYYCNVKDYGAVLYEYDYWGQGTQVTVSS
β2AR [1]
  enhancement of the affinity of β2AR for the agonist isoproterenol in the presence of nanobody: two- to thirty-fold
β2AR [2]
  nanobody-induced change of mBBr fluorescence: larger changes were observed when both agonist and nanobody were added together; also recorded: stabilizes a more active state of the β2AR
β2AR [3]
  complex formation with β2AR on SEC: β2AR-agonist-Nb80 complex formation
Human β1AR
  effect of Nb80 on affinity of β1AR for CGP20712A: does not change the affinity
  effect of Nb80 on affinity of β1AR for the agonist isoproterenol: increased affinity
β2AR [4]; DDM-solubilized isoproterenol-bound β2AR, 12.0° C. without Nb80
  apparent melting temperature for β2AR with Nb80: 24 °C
β2AR [4]; isoproterenol 10 μM, 2:1 molar excess of Nb80
  increase of melting temperature (Tm) of the agonist-bound receptor: 12 °C
β2AR [5]
  effect of Nb80 on affinity for the inverse agonist ICI-118,551: does not increase the affinity; also recorded: little effect
β2AR [6]
  effect on temperature-induced aggregation of agonist-bound receptor (SEC): protects the agonist-bound receptor against temperature-induced aggregation
β2AR [7]
  increase of isoproterenol affinity in the presence of Nb80: 95 fold
β2AR-T4L [8]
  increase of isoproterenol affinity in the presence of Nb80: 60 fold
β2AR-T4L [9]
  effect of Nb80 on affinity for the inverse agonist ICI-118,551: does not increase the affinity
Dopamine D1 receptor
  effect of Nb80 on unrelated receptor: No such effect
β2AR [10]
  effect of Nb80 on β2AR affinity for ligands: increases β2AR affinity for agonists but not for antagonists

Source: patent US11162953B2, “Protein binding domains stabilizing functional conformational states of GPCRS and uses thereof” (priority 2010, dated 2021)
